Laboratory results taken from article PMC8649396.

What was measured:
[1] = target: His-tagged phthalate dioxygenase from Comamonas testosteroni KF1 (Ht-PDOKF1) (Comamonas testosteroni KF1); assay: SEC
[2] = target: Rieske oxygenase from Cupriavidus metallidurans CH34 (RO_CH34) (Cupriavidus metallidurans CH34); assay: crystal structure
[3] = target: Rieske oxygenase from Cupriavidus metallidurans CH34 (RO_CH34) (Cupriavidus metallidurans CH34); assay: SEC
[4] = target: Phthalate dioxygenase from Comamonas testosteroni KF1 (PDOKF1), as crystallised (Comamonas testosteroni KF1); assay: crystal structure

His-tagged phthalate dioxygenase from Comamonas testosteroni KF1 (Ht-PDOKF1) (enzyme)
stoichiometry N [1]: 6

Rieske oxygenase from Cupriavidus metallidurans CH34 (RO_CH34) (enzyme)
stoichiometry N [2]: 3
stoichiometry N [3]: 3

Phthalate dioxygenase from Comamonas testosteroni KF1 (PDOKF1), as crystallised (enzyme)
stoichiometry N [4]: 6
